Reference: patent US9266964

B1: M198-C05 (Fab, V domains shown)
VH: EVQLLESGGGLVQPGGSLRLSCAASGFTFSRYKMYWVRQAPGKGLEWVSVIGPSGGATFYADSVKGRFTISRDNSKNTLYLQMNSLRAEDTAVYYCAYRRTGIPRRDAFDIWGQGTMVTVSS
VL: DIQMTQSPSTLSASVGDRVTITCRASQSISSWLAWYQQKPGKAPNLLIYKASTLESGVPSRFSGSGSGTEFTLTISSLQPDDFATYYCQQYNTYWTFGQGTKVEIK
B2: M196-H03 (Fab, V domains shown)
VH: EVQLLESGGGLVQPGGSLRLSCAASGFTFSRYVMWWVRQAPGKGLEWVSSISPSGDTHYADSVKGRFTISRDNSKNTLYLQMNSLRAEDTAVYYCAYRRTGIPRRDAFDIWGQGTMVTVSS
VL: DIQMTQSPSTLSASVGDRVTITCRASQSISSWLAWYQQKPGKAPNLLIYKASTLESGVPSRFSGSGSGTEFTLTISSLQPDDFATYYCQQYNTYWTFGQGTKVEIK
B3: M196-D02 (Fab, V domains shown)
VH: EVQLLESGGGLVQPGGSLRLSCAASGFTFSVYSMHWVRQAPGKGLEWVSVIGPSGGITLYADSVKGRFTISRDNSKNTLYLQMNSLRAEDTAVYYCAYRRTGIPRRDAFDIWGQGTMVTVSS
VL: DIQMTQSPSTLSASVGDRVTITCRASQSISSWLAWYQQKPGKAPNLLIYKASTLESGVPSRFSGSGSGTEFTLTISSLQPDDFATYYCQQYNTYWTFGQGTKVEIK
B4: M195-A02 (Fab, V domains shown)
VH: EVQLLESGGGLVQPGGSLRLSCAASGFTFSQYMMMWVRQAPGKGLEWVSGISSSGGHTDYADSVKGRFTISRDNSKNTLYLQMNSLRAEDTAVYYCAYRRTGIPRRDAFDIWGQGTMVTVSS
VL: DIQMTQSPSTLSASVGDRVTITCRASQSISSWLAWYQQKPGKAPNLLIYKASTLESGVPSRFSGSGSGTEFTLTISSLQPDDFATYYCQQYNTYWTFGQGTKVEIK
B5: M198-A08 (Fab, V domains shown)
VH: EVQLLESGGGLVQPGGSLRLSCAASGFTFSWYMMQWVRQAPGKGLEWVSRISPSGGTTYADSVKGRFTISRDNSKNTLYLQMNSLRAEDTAVYYCAYRRTGIPRRDAFDIWGQGTMVTVSS
VL: DIQMTQSPSTLSASVGDRVTITCRASQSISSWLAWYQQKPGKAPNLLIYKASTLESGVPSRFSGSGSGTEFTLTISSLQPDDFATYYCQQYNTYWTFGQGTKVEIK
B6: M199-A11 (Fab, V domains shown)
VH: EVQLLESGGGLVQPGGSLRLSCAASGFTFSHYIMMWVRQAPGKGLEWVSGIYSSGGITVYADSVKGRFTISRDNSKNTLYLQMNSLRAEDTAVYYCAYRRRGIPRRDAFDIWGQGTMVTVSS
VL: DIQMTQSPSTLSASVGDRVTITCRASQSISSWLAWYQQKPGKAPNLLIYKASTLESGVPSRFSGSGSGTEFTLTISSLQPDDFATYYCQQYNTYWTFGQGTKVEIK
B7: M198-F12 (Fab, V domains shown)
VH: EVQLLESGGGLVQPGGSLRLSCAASGFTFSIYTMMWVRQAPGKGLEWVSSIWSSGGQTKYADSVKGRFTISRDNSKNTLYLQMNSLRAEDTAVYYCAYRRTGIPRRDAFDIWGQGTMVTVSS
VL: DIQMTQSPSTLSASVGDRVTITCRASQSISSWLAWYQQKPGKAPNLLIYKASTLESGVPSRFSGSGSGTEFTLTISSLQPDDFATYYCQQYNTYWTFGQGTKVEIK
B8: M202-A04 (Fab, V domains shown)
VH: EVQLLESGGGLVQPGGSLRLSCAASGFTFSHYIMMWVRQAPGKGLEWVSGIYSSGGITVYADSVKGRFTISRDNSKNTLYLQMNSLRAEDTAVYYCAYRRKGIPRRDDFDIWGQGTMVTVSS
VL: DIQMTQSPSTLSASVGDRVTITCRASQSISSWLAWYQQKPGKAPNLLIYKASTLESGVPSRFSGSGSGTEFTLTISSLQPDDFATYYCQQYNTYWTFGQGTKVEIK
B9: M202-B04 (Fab, V domains shown)
VH: EVQLLESGGGLVQPGGSLRLSCAASGFTFSHYIMMWVRQAPGKGLEWVSGIYSSGGITVYADSVKGRFTISRDNSKNTLYLQMNSLRAEDTAVYYCAYRRSGVPRRDDFDIWGQGTMVTVSS
VL: DIQMTQSPSTLSASVGDRVTITCRASQSISSWLAWYQQKPGKAPNLLIYKASTLESGVPSRFSGSGSGTEFTLTISSLQPDDFATYYCQQYNTYWTFGQGTKVEIK
B10: M195-G02 (Fab, V domains shown)
VH: EVQLLESGGGLVQPGGSLRLSCAASGFTFSPYNMMWVRQAPGKGLEWVSSIWPSGGTTDYADSVKGRFTISRDNSKNTLYLQMNSLRAEDTAVYYCAYRRTGIPRRDAFDIWGQGTMVTVSS
VL: DIQMTQSPSTLSASVGDRVTITCRASQSISSWLAWYQQKPGKAPNLLIYKASTLESGVPSRFSGSGSGTEFTLTISSLQPDDFATYYCQQYNTYWTFGQGTKVEIK
B11: M197-G10 (Fab, V domains shown)
VH: EVQLLESGGGLVQPGGSLRLSCAASGFTFSVYAMRWVRQAPGKGLEWVSSIYPSGGKTWYADSVKGRFTISRDNSKNTLYLQMNSLRAEDTAVYYCAYRRTGIPRRDAFDIWGQGTMVTVSS
VL: DIQMTQSPSTLSASVGDRVTITCRASQSISSWLAWYQQKPGKAPNLLIYKASTLESGVPSRFSGSGSGTEFTLTISSLQPDDFATYYCQQYNTYWTFGQGTKVEIK
B12: M200-F01 (Fab, V domains shown)
VH: EVQLLESGGGLVQPGGSLRLSCAASGFTFSHYIMMWVRQAPGKGLEWVSGIYSSGGITVYADSVKGRFTISRDNSKNTLYLQMNSLRAEDTAVYYCAYRRMGIPRRNAFDIWGQGTMVTVSS
VL: DIQMTQSPSTLSASVGDRVTITCRASQSISSWLAWYQQKPGKAPNLLIYKASTLESGVPSRFSGSGSGTEFTLTISSLQPDDFATYYCQQYNTYWTFGQGTKVEIK
B13: M198-B12 (Fab, V domains shown)
VH: EVQLLESGGGLVQPGGSLRLSCAASGFTFSKYSMAWVRQAPGKGLEWVSGIYPSGGRTLYADSVKGRFTISRDNSKNTLYLQMNSLRAEDTAVYYCAYRRTGIPRRDAFDIWGQGTMVTVSS
VL: DIQMTQSPSTLSASVGDRVTITCRASQSISSWLAWYQQKPGKAPNLLIYKASTLESGVPSRFSGSGSGTEFTLTISSLQPDDFATYYCQQYNTYWTFGQGTKVEIK
B14: M198-A09 (Fab, V domains shown)
VH: EVQLLESGGGLVQPGGSLRLSCAASGFTFSIYFMSWVRQAPGKGLEWVSSIRSSGGPTWYADSVKGRFTISRDNSKNTLYLQMNSLRAEDTAVYYCAYRRTGIPRRDAFDIWGQGTMVTVSS
VL: DIQMTQSPSTLSASVGDRVTITCRASQSISSWLAWYQQKPGKAPNLLIYKASTLESGVPSRFSGSGSGTEFTLTISSLQPDDFATYYCQQYNTYWTFGQGTKVEIK
B15: M202-C02 (Fab, V domains shown)
VH: EVQLLESGGGLVQPGGSLRLSCAASGFTFSHYIMMWVRQAPGKGLEWVSGIYSSGGITVYADSVKGRFTISRDNSKNTLYLQMNSLRAEDTAVYYCAYRRPGVPRRDAFDIWGQGTMVTVSS
VL: DIQMTQSPSTLSASVGDRVTITCRASQSISSWLAWYQQKPGKAPNLLIYKASTLESGVPSRFSGSGSGTEFTLTISSLQPDDFATYYCQQYNTYWTFGQGTKVEIK
B16: M195-B02 (Fab, V domains shown)
VH: EVQLLESGGGLVQPGGSLRLSCAASGFTFSPYLMWWVRQAPGKGLEWVSYIGPSGGPTHYADSVKGRFTISRDNSKNTLYLQMNSLRAEDTAVYYCAYRRTGIPRRDAFDIWGQGTMVTVSS
VL: DIQMTQSPSTLSASVGDRVTITCRASQSISSWLAWYQQKPGKAPNLLIYKASTLESGVPSRFSGSGSGTEFTLTISSLQPDDFATYYCQQYNTYWTFGQGTKVEIK
B17: M201-H08 (Fab, V domains shown)
VH: EVQLLESGGGLVQPGGSLRLSCAASGFTFSHYIMMWVRQAPGKGLEWVSGIYSSGGITVYADSVKGRFTISRDNSKNTLYLQMNSLRAEDTAVYYCAYRRTGVPRRDALDNWGQGTMVTVSS
VL: DIQMTQSPSTLSASVGDRVTITCRASQSISSWLAWYQQKPGKAPNLLIYKASTLESGVPSRFSGSGSGTEFTLTISSLQPDDFATYYCQQYNTYWTFGQGTKVEIK
B18: M198-C03 (Fab, V domains shown)
VH: EVQLLESGGGLVQPGGSLRLSCAASGFTFSRYSMSWVRQAPGKGLEWVSGISPSGGETSYADSVKGRFTISRDNSKNTLYLQMNSLRAEDTAVYYCAYRRTGIPRRDAFDIWGQGTMVTVSS
VL: DIQMTQSPSTLSASVGDRVTITCRASQSISSWLAWYQQKPGKAPNLLIYKASTLESGVPSRFSGSGSGTEFTLTISSLQPDDFATYYCQQYNTYWTFGQGTKVEIK
B19: M198-C09 (Fab, V domains shown)
VH: EVQLLESGGGLVQPGGSLRLSCAASGFTFSIYTMYWVRQAPGKGLEWVSSISPSGGWTYYADSVKGRFTISRDNSKNTLYLQMNSLRAEDTAVYYCAYRRTGIPRRDAFDIWGQGTMVTVSS
VL: DIQMTQSPSTLSASVGDRVTITCRASQSISSWLAWYQQKPGKAPNLLIYKASTLESGVPSRFSGSGSGTEFTLTISSLQPDDFATYYCQQYNTYWTFGQGTKVEIK
B20: M200-E11 (Fab, V domains shown)
VH: EVQLLESGGGLVQPGGSLRLSCAASGFTFSHYIMMWVRQAPGKGLEWVSGIYSSGGITVYADSVKGRFTISRDNSKNTLYLQMNSLRAEDTAVYYCAYRRTGVPRRDAFDNWGQGTMVTVSS
VL: DIQMTQSPSTLSASVGDRVTITCRASQSISSWLAWYQQKPGKAPNLLIYKASTLESGVPSRFSGSGSGTEFTLTISSLQPDDFATYYCQQYNTYWTFGQGTKVEIK
B21: M198-C06 (Fab, V domains shown)
VH: EVQLLESGGGLVQPGGSLRLSCAASGFTFSQYFMHWVRQAPGKGLEWVSYIYPSGGMTEYADSVKGRFTISRDNSKNTLYLQMNSLRAEDTAVYYCAYRRTGIPRRDAFDIWGQGTMVTVSS
VL: DIQMTQSPSTLSASVGDRVTITCRASQSISSWLAWYQQKPGKAPNLLIYKASTLESGVPSRFSGSGSGTEFTLTISSLQPDDFATYYCQQYNTYWTFGQGTKVEIK

molecular target: human plasma kallikrein (human, UniProt P03952 20-390; P03952 391-638); assay: cell-based or functional assay
Sequence (P03952 20-390, chain 1 of 2): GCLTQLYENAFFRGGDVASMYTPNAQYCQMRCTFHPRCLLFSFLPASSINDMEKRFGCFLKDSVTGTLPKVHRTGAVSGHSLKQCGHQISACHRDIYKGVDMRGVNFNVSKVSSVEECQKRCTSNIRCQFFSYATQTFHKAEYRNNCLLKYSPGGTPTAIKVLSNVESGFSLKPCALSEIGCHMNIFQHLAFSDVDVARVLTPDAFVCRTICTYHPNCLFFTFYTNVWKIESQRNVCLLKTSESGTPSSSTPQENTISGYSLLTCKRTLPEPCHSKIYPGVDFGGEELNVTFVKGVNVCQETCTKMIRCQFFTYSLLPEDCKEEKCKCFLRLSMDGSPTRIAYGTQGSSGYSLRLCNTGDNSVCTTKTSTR
Sequence (P03952 391-638, chain 2 of 2): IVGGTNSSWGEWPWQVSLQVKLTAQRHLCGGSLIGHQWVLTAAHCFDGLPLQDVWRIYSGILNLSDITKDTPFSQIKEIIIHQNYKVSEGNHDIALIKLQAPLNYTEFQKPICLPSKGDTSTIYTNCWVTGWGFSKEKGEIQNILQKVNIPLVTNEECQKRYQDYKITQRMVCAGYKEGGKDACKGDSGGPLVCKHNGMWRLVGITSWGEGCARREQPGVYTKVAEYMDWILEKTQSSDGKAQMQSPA

**Q.** B1 was tested. Which “% inhibition at 10 nM” value did it give?
**A.** The value was 83.9%.

**Q.** With B2 as the binder, how does the “% inhibition at 10 nM” value read?
**A.** The value was 83.9%.

**Q.** For B3, which “% inhibition at 10 nM” value is on record?
**A.** The value was 66.2%.

**Q.** For B4, which “% inhibition at 10 nM” value is on record?
**A.** The value was 71.3%.

**Q.** With B5 as the binder, how does the “% inhibition at 10 nM” value read?
**A.** The value was 72.3%.

**Q.** With B6 as the binder, how does the “% inhibition at 10 nM” value read?
**A.** Its value is 65.4%.

**Q.** B7 was tested. Which “% inhibition at 10 nM” value did it give?
**A.** The value was 74.6%.

**Q.** For B8, which “% inhibition at 10 nM” value is on record?
**A.** The value was 81.2%.

**Q.** With B9 as the binder, how does the “% inhibition at 10 nM” value read?
**A.** Its value is 81.9%.

**Q.** How did the “% inhibition at 10 nM” value turn out when B10 was run?
**A.** Its value is 67.5%.

**Q.** With B11 as the binder, how does the “% inhibition at 10 nM” value read?
**A.** The value was 67.6%.

**Q.** B12 was tested. Which “% inhibition at 10 nM” value did it give?
**A.** Its value is 65.1%.

**Q.** B13 was tested. Which “% inhibition at 10 nM” value did it give?
**A.** The value was 80.7%.

**Q.** With B14 as the binder, how does the “% inhibition at 10 nM” value read?
**A.** The value was 77.3%.

**Q.** For B15, which “% inhibition at 10 nM” value is on record?
**A.** The value was 74.3%.

**Q.** B16 was tested. Which “% inhibition at 10 nM” value did it give?
**A.** Its value is 75.1%.

**Q.** Which “% inhibition at 10 nM” value does the source give for B17 here?
**A.** Its value is 74.5%.

**Q.** Which “% inhibition at 10 nM” value does the source give for B18 here?
**A.** Its value is 72.4%.

**Q.** Which “% inhibition at 10 nM” value does the source give for B19 here?
**A.** The value was 75.4%.

**Q.** For B20, which “% inhibition at 10 nM” value is on record?
**A.** Its value is 83.2%.

**Q.** How did the “% inhibition at 10 nM” value turn out when B21 was run?
**A.** The value was 76.5%.
